Measured values taken from patent publication US20200131224A1, “Methods for Synthesis of Radionuclide Complex” (Advanced Accelerator Applications (Italy) S.R.L., priority 2018, published 2020).

Test: Radiochemical purity (RCP) of the Drug Substance 72 hours from end of synthesis
Type: physicochemical
Details: radiochemical purity 72 hours from end of synthesis; reaction time 5 min; reactor temperature 80 or 100 °C by batch
Method: The reaction temperature has been tested between 80° C. and 100° C. for labeling times of 5 minutes.

SMILES	RCP (%) t72 h
C[C@@H](O)[C@H](NC(=O)[C@@H]1CSSC[C@H](NC(=O)[C@@H](Cc2ccccc2)NC(=O)CN2CCN(CC(=O)[O-])CCN(CC(=O)[O-])CCN(CC(=O)[O-])CC2)C(=O)N[C@@H](Cc2ccc(O)cc2)C(=O)N[C@H](Cc2c[nH]c3ccccc23)C(=O)N[C@@H](CCCCN)C(=O)N[C@@H]([C@@H](C)O)C(=O)N1)C(=O)O.[177Lu+3] [LT141013B-03, ^177Lu-DOTA0-Tyr^3-Octreotate]	95.9%
C[C@@H](O)[C@H](NC(=O)[C@@H]1CSSC[C@H](NC(=O)[C@@H](Cc2ccccc2)NC(=O)CN2CCN(CC(=O)[O-])CCN(CC(=O)[O-])CCN(CC(=O)[O-])CC2)C(=O)N[C@@H](Cc2ccc(O)cc2)C(=O)N[C@H](Cc2c[nH]c3ccccc23)C(=O)N[C@@H](CCCCN)C(=O)N[C@@H]([C@@H](C)O)C(=O)N1)C(=O)O.[177Lu+3] [LT141013C-03, ^177Lu-DOTA0-Tyr^3-Octreotate]	95.8%
